Laboratory results taken from US20130136748A1 (Ablynx, published 2013).

How the values were obtained:
human HER1 [1] = target: T1, human HER1 (human, UniProt P00533 25-1210); assay: FACS, CHO-HER1
T1 construct: also called EGFR; ErbB1

human HER2 [2] = target: T2, human HER2 (human, UniProt P04626 23-1255); assay: FACS, CHO-HER2
T2 construct: also called hHER2

human HER4 [3] = target: T3, human HER4 (human, UniProt Q15303 26-1308); assay: FACS, CHO-HER4
human HER1 [4] = target: T1, human HER1; assay: FACS CHO-HER1, 222 nM
human HER1 [5] = target: T1, human HER1; assay: FACS CHO-HER1, 667 nM
human HER2 [6] = target: T2, human HER2; assay: FACS CHO-HER2, 222 nM
human HER2 [7] = target: T2, human HER2; assay: FACS CHO-HER2, 667 nM
human HER4 [8] = target: T3, human HER4; assay: FACS CHO-HER4, 222 nM
human HER4 [9] = target: T3, human HER4; assay: FACS CHO-HER4, 667 nM
human HER1 [10] = target: T1, human HER1; assay: FACS CHO-HER1, 2000 nM
human HER2 [11] = target: T2, human HER2; assay: FACS CHO-HER2, 2000 nM
human HER4 [12] = target: T3, human HER4; assay: FACS CHO-HER4, 2000 nM
hHER3 full length [13] = target: T4, hHER3 full length (human, UniProt P21860 20-1342); assay: cell-based or functional assay
hHER3 full length [14] = target: T4, hHER3 full length; assay: cell-based or functional assay; remark: listed apart in the source
[15] = target: T5, hHER3 ECD (human HER3 extracellular domain) (human, UniProt P21860 20-643); assay: ELISA, coated hHER3-ECD
T5 construct: also called recombinant HER3-ECD

[16] = target: T6, cHER3ECD (Maccaca fascicularis HER3 extracellular domain) (Macaca fascicularis, UniProt P21860 20-643 (human entry)); assay: ELISA, coated cHER3-ECD
T6 construct: also called cyno HER3ECD; cyno HER3-ECD
T6 chain: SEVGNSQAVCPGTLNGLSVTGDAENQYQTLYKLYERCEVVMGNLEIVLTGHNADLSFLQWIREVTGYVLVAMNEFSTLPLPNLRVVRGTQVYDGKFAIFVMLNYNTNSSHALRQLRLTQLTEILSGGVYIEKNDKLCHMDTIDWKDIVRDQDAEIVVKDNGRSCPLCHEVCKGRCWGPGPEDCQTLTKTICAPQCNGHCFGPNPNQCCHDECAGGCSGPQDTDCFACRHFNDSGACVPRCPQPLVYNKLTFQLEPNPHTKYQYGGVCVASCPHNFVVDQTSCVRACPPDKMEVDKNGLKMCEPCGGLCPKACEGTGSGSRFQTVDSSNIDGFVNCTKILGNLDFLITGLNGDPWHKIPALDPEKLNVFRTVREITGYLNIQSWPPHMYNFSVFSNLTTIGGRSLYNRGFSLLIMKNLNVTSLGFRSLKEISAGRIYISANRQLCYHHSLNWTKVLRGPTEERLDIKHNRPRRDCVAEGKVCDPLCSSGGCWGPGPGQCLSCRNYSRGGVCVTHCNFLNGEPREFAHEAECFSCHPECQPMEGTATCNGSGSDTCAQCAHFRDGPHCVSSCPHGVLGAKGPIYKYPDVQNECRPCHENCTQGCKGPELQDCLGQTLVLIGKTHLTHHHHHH

hHER3 full length [17] = target: T4, hHER3 full length; assay: FACS, 400 nM, competitor 04C07-biotin
hHER3 full length [18] = target: T4, hHER3 full length; assay: FACS, 400 nM, competitor 04F10-biotin
hHER3 full length [19] = target: T4, hHER3 full length; assay: FACS, 400 nM, competitor 17C08-biotin
hHER3 full length [20] = target: T4, hHER3 full length; assay: FACS, 400 nM, competitor 18E08-biotin
hHER3 full length [21] = target: T4, hHER3 full length; assay: FACS, 400 nM, competitor 21B02-biotin
hHER3 full length [22] = target: T4, hHER3 full length; assay: FACS, 400 nM, competitor 23F05-biotin

T3 sequence (Q15303 26-1308 limits assumed): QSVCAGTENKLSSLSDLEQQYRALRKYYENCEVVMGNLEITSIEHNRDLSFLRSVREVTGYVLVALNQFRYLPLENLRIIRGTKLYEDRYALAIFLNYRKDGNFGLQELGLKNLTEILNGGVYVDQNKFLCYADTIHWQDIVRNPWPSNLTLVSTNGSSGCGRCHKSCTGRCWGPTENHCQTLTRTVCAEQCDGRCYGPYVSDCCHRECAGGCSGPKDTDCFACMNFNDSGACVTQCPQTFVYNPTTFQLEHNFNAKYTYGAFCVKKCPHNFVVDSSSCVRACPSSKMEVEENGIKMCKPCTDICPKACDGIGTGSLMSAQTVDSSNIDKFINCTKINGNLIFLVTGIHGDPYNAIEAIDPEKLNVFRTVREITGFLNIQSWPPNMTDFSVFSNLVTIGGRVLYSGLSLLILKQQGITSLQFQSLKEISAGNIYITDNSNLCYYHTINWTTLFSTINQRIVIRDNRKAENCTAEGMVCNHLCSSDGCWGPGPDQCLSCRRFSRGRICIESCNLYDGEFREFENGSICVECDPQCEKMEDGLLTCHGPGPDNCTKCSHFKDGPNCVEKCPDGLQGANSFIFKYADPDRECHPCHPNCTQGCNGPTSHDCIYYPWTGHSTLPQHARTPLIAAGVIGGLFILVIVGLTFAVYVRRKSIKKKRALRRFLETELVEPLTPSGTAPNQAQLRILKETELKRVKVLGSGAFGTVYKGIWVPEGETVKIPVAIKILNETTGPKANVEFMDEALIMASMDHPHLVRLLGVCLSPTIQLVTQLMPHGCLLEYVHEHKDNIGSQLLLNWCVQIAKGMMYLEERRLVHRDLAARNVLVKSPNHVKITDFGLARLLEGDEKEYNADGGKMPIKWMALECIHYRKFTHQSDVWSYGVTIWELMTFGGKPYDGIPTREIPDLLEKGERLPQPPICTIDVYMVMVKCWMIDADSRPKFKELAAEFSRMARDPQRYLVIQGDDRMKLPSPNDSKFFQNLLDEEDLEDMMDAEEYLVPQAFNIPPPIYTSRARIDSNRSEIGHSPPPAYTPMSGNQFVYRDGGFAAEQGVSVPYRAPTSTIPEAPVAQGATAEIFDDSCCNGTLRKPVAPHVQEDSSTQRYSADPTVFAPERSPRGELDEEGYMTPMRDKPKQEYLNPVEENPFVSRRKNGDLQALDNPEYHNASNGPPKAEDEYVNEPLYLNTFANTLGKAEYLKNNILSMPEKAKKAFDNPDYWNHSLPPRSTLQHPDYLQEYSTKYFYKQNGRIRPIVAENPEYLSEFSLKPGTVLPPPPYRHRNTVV

B1: 04C07 (VHH)
VHH: EVQLVESGGGLVQAGGSLRLSCAASGFTFSSYPMSWVRQAPGKGPAWVSTVSPGGITTSYADSVKGRFTISRDNAKNTLYLQMNSLKPEDTAVYYCLRDLNNRGQGTQVTVSS
notes: also called HER3MS04C07; HER3MS004C07
B1: no binding (tested: 2000 nM) (human HER1 [1]); no binding (tested: 2000 nM) (human HER2 [2]); no binding (tested: 2000 nM) (human HER4 [3]). It also gave an MCF (human HER1 [4]) of 75, an MCF (human HER1 [5]) of 92 and an MCF (human HER2 [6]) of 84. For the same binder, the MCF (human HER2 [7]) was 79, the MCF (human HER4 [8]) was 96 and the MCF (human HER4 [9]) was 103. The MCF (human HER1 [10]) was 72, the MCF (human HER2 [11]) was 154 and the MCF (human HER4 [12]) was 105. The “IC50, HRG1-β1 induced pHER3, MCF-7” value (hHER3 full length [13]) was 1.07e-09 M, the “IC50, HRG1-β1 induced pHER3, MDA-MB468” value (hHER3 full length [13]) was 6.68e-09 M and the “IC50, HRG1-β1 induced pAkt, MCF-7” value (hHER3 full length [14]) was 1.09e-08 M. The “IC50, HRG1-β1 induced pERK1/2, MCF-7” value (hHER3 full length [14]) was 2.79e-08 M, the EC50 [15] was 0.86 nM and the EC50 [16] was 0.93 nM. The “% competition” value (hHER3 full length [17]) was 100%, the “% competition” value (hHER3 full length [18]) was 0% and the “% competition” value (hHER3 full length [19]) was 15%. For the same binder, the “% competition” value (hHER3 full length [20]) was 26%, the “% competition” value (hHER3 full length [21]) was 2% and the “% competition” value (hHER3 full length [22]) was 0%.

B2: 18G11 (VHH)
VHH: EVQLVESGGGLVQPGGSLRLSCAASGTLFKINAMGWYRQAPGKRRELVALITSSDTTDYAESVEGRFTISRDNTWNAVYLQMNSLKPEDTAVYYCHSDHYSMGVPEKRVIMYGQGTQVTVSS
notes: c-myc, His6-tagged form as expressed; also called HER3MS18G11; HER3MS018G11
B2: no binding (tested: 2000 nM) (human HER1 [1]); no binding (tested: 2000 nM) (human HER2 [2]); no binding (tested: 2000 nM) (human HER4 [3]). It also gave an MCF (human HER1 [4]) of 101, an MCF (human HER1 [5]) of 87 and an MCF (human HER2 [6]) of 109. The MCF (human HER2 [7]) was 117, the MCF (human HER4 [8]) was 57 and the MCF (human HER4 [9]) was 56. The MCF (human HER1 [10]) was 97, the MCF (human HER2 [11]) was 65 and the MCF (human HER4 [12]) was 124. The “IC50, HRG1-β1 induced pHER3, MCF-7” value (hHER3 full length [13]) was 1.03e-08 M, the “IC50, HRG1-β1 induced pHER3, MDA-MB468” value (hHER3 full length [13]) was 7.03e-09 M and the “IC50, HRG1-β1 induced pAkt, MCF-7” value (hHER3 full length [14]) was 1.38e-07 M. For the same binder, the “inhibition of HRG1-β1 induced pERK1/2, MCF-7” value (hHER3 full length [14]) was less than 50 % inhibition, the EC50 [15] was 0.72 nM and the EC50 [16] was 0.64 nM. The “% competition” value (hHER3 full length [17]) was 0%, the “% competition” value (hHER3 full length [18]) was 0% and the “% competition” value (hHER3 full length [19]) was 74%. The “% competition” value (hHER3 full length [20]) was 97%, the “% competition” value (hHER3 full length [21]) was 0% and the “% competition” value (hHER3 full length [22]) was 0%.

B3: 17C08 (VHH)
VHH: EVQLVESGGGLMQAGDSLRLSCAASGRAFSSYALGWFRRAPGKERECVAATDRLGDNTYFPDSVKGRFTISRDNAKNTLYLQMNNLKPEDTAVYYCAAGAVRYGVSTSPMNYNYWGQGTQVTVSS
notes: also called 17C8
B3: no binding (tested: 2000 nM) (human HER1 [1]); no binding (tested: 2000 nM) (human HER2 [2]); no binding (tested: 2000 nM) (human HER4 [3]). The MCF (human HER1 [4]) was 62, the MCF (human HER1 [5]) was 47 and the MCF (human HER2 [6]) was 160. It also gave an MCF (human HER2 [7]) of 418, an MCF (human HER4 [8]) of 210 and an MCF (human HER4 [9]) of 91. It also gave an MCF (human HER1 [10]) of 58, an MCF (human HER2 [11]) of 1220 and an MCF (human HER4 [12]) of 254. For the same binder, the “IC50, HRG1-β1 induced pHER3, MCF-7” value (hHER3 full length [13]) was 8.98e-08 M, the “IC50, HRG1-β1 induced pHER3, MDA-MB468” value (hHER3 full length [13]) was 5.38e-08 M and the “IC50, HRG1-β1 induced pAkt, MCF-7” value (hHER3 full length [14]) was 7.24e-07 M. For the same binder, the “inhibition of HRG1-β1 induced pERK1/2, MCF-7” value (hHER3 full length [14]) was less than 50 % inhibition, the EC50 [15] was 0.62 nM and the EC50 [16] was 0.59 nM. For the same binder, the “% competition” value (hHER3 full length [17]) was 3%, the “% competition” value (hHER3 full length [18]) was 77% and the “% competition” value (hHER3 full length [19]) was 97%. The “% competition” value (hHER3 full length [20]) was 98%, the “% competition” value (hHER3 full length [21]) was 16% and the “% competition” value (hHER3 full length [22]) was 17%.
